Source: article PMC7542365 (mBio, 2020)

Biological target: T1, A/Brevig Mission/1/1918 H1N1 NA, soluble tetramer with His tag attached (influenza A virus A/Brevig …)
T1 chain: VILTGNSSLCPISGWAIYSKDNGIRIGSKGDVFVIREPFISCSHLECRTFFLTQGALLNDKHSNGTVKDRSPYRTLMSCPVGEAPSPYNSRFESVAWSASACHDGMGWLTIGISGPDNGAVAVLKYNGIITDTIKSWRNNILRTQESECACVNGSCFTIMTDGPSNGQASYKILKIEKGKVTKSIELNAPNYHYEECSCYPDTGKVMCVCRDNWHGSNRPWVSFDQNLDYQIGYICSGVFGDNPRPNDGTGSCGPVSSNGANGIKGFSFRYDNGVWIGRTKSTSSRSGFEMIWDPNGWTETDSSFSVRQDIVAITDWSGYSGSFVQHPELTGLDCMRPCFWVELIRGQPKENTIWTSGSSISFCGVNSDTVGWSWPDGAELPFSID
Experiment: SPR

B1: Z2B3-D102R Fab (Fab, V domains shown)
VH: EVQLVQSGAEVKKPGSSVKVSCKASGGPFSSYGFSWVRQAPGQGLEWMGGIIPVYGTTNYAQKFQGRVTITADESTSTAYMELSSLKSEDTAVYYCARDLQRTPMVDRIIGSYYYYNGLDVWGQGTTVTVSS
VL: QSVLTQPASVSGSPGQSITISCTGASSDVGDYNYVSWYQQHPGKAPKLMIYDVSNRPSGVSNRFSGSKSGDTASLTISGLQAEDEADYYCSSYTRSSSVVFGGGTKLTVL
Kd: 1670 nM
